Test results: article PMC5218472 (PLoS Biology, 2017)
Substitutions are numbered along the chain they refer to. Residues, ends and D or L forms follow the SMILES beside them. *: point of attachment. NH(β-GlcNAc) = CC(=O)N[C@@H]1[C@@H](O)[C@H](O)[C@@H](CO)O[C@H]1N*; αGalNAc = CC(=O)N[C@@H]1[C@@H](O)[C@@H](O)[C@@H](CO)O[C@@H]1*

B1: IL-6R / sIL-6R (interleukin-6 receptor): peptide 3(QD), GlcNAc at Asn-350 (protein)
parent chain: MLAVGCALLAALLAAPGAALAPRRCPAQEVARGVLTSLPGDSVTLTCPGVEPEDNATVHWVLRKPAAGSHPSRWAGMGRRLLLRSVQLHDSGNYSCYRAGRPAGTVHLLVDVPPEEPQLSCFRKSPLSNVVCEWGPRSTPSLTTKAVLLVRKFQNSPAEDFQEPCQYSQESQKFSCQLAVPEGDSSFYIVSMCVASSVGSKFSKTQTFQGCGILQPDPPANITVTAVARNPRWLSVTWQDPHSWNSSFYRLRFELRYRAERSKTFTTWMVKDLQHHCVIHDAWSGLRHVVQLRAQEEFGQGEWSEWSPEAMGTPWTESRSPPAENEVSTPMQALTTNKDDDNILFRDSANATSLPVQDSSSVPLPTFLVAGGSLAFGTLLCIAIVLRFKKTWKLRALKEGKTSMHPPYSLGQLVPERPRPTPVLVPLISPPVSPSSLGSDNTSSHNRPDARDPRSPYDISNTDYFFPR
B2: IL-6R / sIL-6R (interleukin-6 receptor): peptide 8(QA), GalNAc at Thr-352 (protein)
parent chain: B1 parent chain with D358A
B3: IL-6R / sIL-6R (interleukin-6 receptor): peptide 9(QD), biantennary N-glycan plus GalNAc (protein)
parent chain: B1 parent chain
B4: IL-6R / sIL-6R (interleukin-6 receptor): peptide 6(QA), biantennary N-glycan at Asn-350 (protein)
parent chain: B1 parent chain with D358A
B5: IL-6R / sIL-6R (interleukin-6 receptor): peptide 7(QD), GalNAc at Thr-352 (protein)
parent chain: B1 parent chain
B6: IL-6R / sIL-6R (interleukin-6 receptor): peptide 5(QD), biantennary N-glycan at Asn-350 (protein)
parent chain: B1 parent chain
B7: IL-6R / sIL-6R (interleukin-6 receptor): peptide 10(QA), biantennary N-glycan plus GalNAc (protein)
parent chain: B1 parent chain with D358A
B8: IL-6R / sIL-6R (interleukin-6 receptor): peptide 4(QA), GlcNAc at Asn-350 (protein)
parent chain: B1 parent chain with D358A
B9: PVQA: IL-6R Asp358Ala variant (protein, UniProt P08887 20-468, looked up, variant D358A)
Interleukin-6 receptor …: LAPRRCPAQEVARGVLTSLPGDSVTLTCPGVEPEDNATVHWVLRKPAAGSHPSRWAGMGRRLLLRSVQLHDSGNYSCYRAGRPAGTVHLLVDVPPEEPQLSCFRKSPLSNVVCEWGPRSTPSLTTKAVLLVRKFQNSPAEDFQEPCQYSQESQKFSCQLAVPEGDSSFYIVSMCVASSVGSKFSKTQTFQGCGILQPDPPANITVTAVARNPRWLSVTWQDPHSWNSSFYRLRFELRYRAERSKTFTTWMVKDLQHHCVIHDAWSGLRHVVQLRAQEEFGQGEWSEWSPEAMGTPWTESRSPPAENEVSTPMQALTTNKDDDNILFRDSANATSLPVQASSSVPLPTFLVAGGSLAFGTLLCIAIVLRFKKTWKLRALKEGKTSMHPPYSLGQLVPERPRPTPVLVPLISPPVSPSSLGSDNTSSHNRPDARDPRSPYDISNTDYFFPR

How the values were obtained:
ADAM17 = tested on: T1, ADAM17; test: In vitro cleavage assay of IL-6R (glyco)peptides with recombinant ADAM17; conditions: human, isolated enzyme, pH 9
T1 construct: catalytic domain (aa Pro-18 to Val-477) of ADAM17; purchased Enzo Life Sciences GmbH (Lörrach, Germany)
Description: Fig 7 The N- and O-glycosylated sequon adjacent to the cleavage site is of minor importance for IL-6R cleavage. (A) Amino-acid sequence of the two unglycosylated peptides 1(QD) and 2(QA). Peptides were incubated either with or without recombinant ADAM17 for 16 h at 37°C, and the amount of cleaved peptide was analyzed by reversed-phase (RP) chromatography. (B) Amino-acid sequence of the two glycopeptides 3(QD) and 4(QA), which have a GlcNAc attached to the amino-acid residue corresponding to Asn-350 of the IL-6R. Cleavage was determined as described in panel (A). (C) Amino-acid sequence of the two glycopeptides 5(QD) and 6(QA), which have a biantennary N-glycan attached to the amino-acid residue corresponding to Asn-350 of the IL-6R. Cleavage was determined as described in panel (A). (D) Amino-acid sequence of the two glycopeptides 7(QD) and 8(QA), which have a GalNAc attached to the amino-acid residue corresponding toThr-352 of the IL-6R. Cleavage was determined as described in panel (A). (E) Amino-acid sequence of the two glycopeptides 9(QD) and 10(QA), which have a biantennary N-glycan attached to the amino-acid residue corresponding to Asn-350 and a GalNAc attached to the amino-acid residue corresponding toThr-352 of the IL-6R. Cleavage was determined as described in panel (A). All data shown are the mean ± SD from three independent experiments (*p < 0.05, **p < 0.01, ***p < 0.001, compared to the untreated peptide; ^§p < 0.05, compared to the cleaved nonglycosylated peptide).
Two 1.5 ml reaction tubes were filled with 50 μl peptide (50 μM) solved in 25 mM Hepes (pH 9.0), and 0.5 μl of the recombinant catalytic domain of ADAM17 was added to one of the reaction tubes, whereas the other sample remained untreated. All samples were incubated for 16 h at 37°C. Afterwards, 1,150 μl 0.1% TFA was added to each sample, and the peptides were separated on a reverse phase chromatography column (Multo High Bio-200-C18) from Chromatographie Service (Langerwehe, Germany) using a linear gradient elution with a binary solvent system and a flow rate of 1 ml/min. Solvent A consisted of 0.1% TFA, and solvent B consisted of 100% ACN. After peak integration, peak areas for cleaved and noncleaved peptides were determined.

[1] = in vitro peptide cleavage, 16 h, RP chromatography; conditions: glycan gained
ADAM10 = test: Ionomycin-induced ADAM10-mediated IL-6R ectodomain shedding in transiently transfected HEK293 cells, sIL-6R ELISA; format: cell-based, human; conditions: normalised to PVQD Iono = 100, mean of n = 3
Excerpt: Analysis of IL-6R ectodomain shedding in transiently transfected HEK293 cells or stably transduced Ba/F3-gp130 cell lines by ADAM10 and ADAM17 has been described elsewhere. Analysis of IL-6R proteolysis by CG has been described previously.
The sandwich ELISA, which detects sIL-6R as well as ds-sIL-6R (4-11/Baf227 antibodies) and can be used to quantify total sIL-6R serum levels, was described previously. To specifically detect ds-sIL-6R (either recombinant or in human serum), a similar approach was used (ds6R/Baf227). Both sandwich ELISAs were performed with streptavidin-horseradish peroxidase (R&D Systems, Minneapolis, Minnesota, US) and the peroxidase substrate BM blue POD (Roche, Mannheim, Germany). The enzymatic reaction was stopped by addition of 1.8 M sulfuric acid, and the absorbance read at 450 nm on a Tecan rainbow reader (Tecan, Crailsheim, Germany).
Supplementary file pbio.2000080.s004.tif: S4 Fig Mutation of Val-356 is sufficient to block ADAM10-mediated proteolysis of the IL-6R and the Asp358Ala variant. (A) HEK293 cells were transiently transfected with Expression plasmids encoding the wildtype IL-6R (PV) or the double mutants (IE, DG) as indicated. Cells were either treated with 1 μM ionomycin for 1 h or DMSO as vehicle control. sIL-6R was precipitated from the supernatant with concanavalin A-covered Sepharose beads, and cells were lysed. Both were analyzed via Western blot, and β-actin served as loading control. One out of three experiments with similar outcome is shown. (B, C) The experiment was performed as described under (A), but sIL-6R generation was analyzed via ELISA. In (B), the amount of sIL-6R generated after ionomycin-stimulation of the wildtype IL-6R (PV) was set to 100%, and all other values were calculated accordingly. In (C), the amount of sIL-6R without stimulation was considered as constitutive shedding and set to 1 and the increase of sIL-6R was calculated. Data shown are the mean ± SD from at least three independent experiments (*p<0.05, ns = no significant difference). (D-F) HEK293 cells were transiently transfected with expression plasmids encoding the wildtype IL-6R (PV) or the single mutants (DV, IV, PE, PG) as indicated. The experiments were performed as described in (A) to (C). (G) ADAM10-mediated proteolysis of the IL-6R variants depicted in Fig 4I was analyzed as described in (B). (H) Equal numbers of Ba/F3-gp130-IL-6R_DG cells were incubated for 48 h with increasing amounts (0–100 ng/ml) of either IL-6 or Hyper-IL-6. One representative experiment out of three performed is shown (mean ± SD, biological triplicates). (TIF) Click here for additional data file.

[2] = control: unglycosylated synthetic peptide 1(QD)
[3] = control: unglycosylated synthetic peptide 2(QA), Asp358Ala

Molecule | other: proteolytic processing, other: percent peptide intact [1, 2] | other: proteolytic processing, other: percent peptide intact [1, 3] | other results
CC[C@H](C)[C@H](NC(=O)[C@@H](N)CC(N)=O)C(=O)N[C@@H](CC(C)C)C(=O)N[C@@H](Cc1ccccc1)C(=O)N[C@@H](CCCNC(=N)N)C(=O)N[C@@H](CC(=O)O)C(=O)N[C@@H](CO)C(=O)N[C@@H](C)C(=O)N[C@@H](CC(=O)N[C@@H]1O[C@H](CO)[C@@H](O)[C@H](O)[C@H]1NC(C)=O)C(=O)N[C@@H](C)C(=O)N[C@H](C(=O)N[C@@H](CO)C(=O)N[C@@H](CC(C)C)C(=O)N1CCC[C@H]1C(=O)N[C@H](C(=O)N[C@@H](CCC(N)=O)C(=O)N[C@@H](CC(=O)O)C(=O)N[C@@H](CO)C(=O)N[C@@H](CO)C(=O)N[C@@H](CO)C(=O)N[C@H](C(=O)N1CCC[C@H]1C(=O)N[C@@H](CC(C)C)C(=O)N1CCC[C@H]1C(=O)O)C(C)C)C(C)C)[C@@H](C)O [3(QD)] (H-NILFRDSAD(NH(β-GlcNAc))ATSLPVQDSSSVPLP-OH) | – | – | remaining at 16 h, 50 μM (ADAM17): 91.4%
CC[C@H](C)[C@H](NC(=O)[C@@H](N)CC(N)=O)C(=O)N[C@@H](CC(C)C)C(=O)N[C@@H](Cc1ccccc1)C(=O)N[C@@H](CCCNC(=N)N)C(=O)N[C@@H](CC(=O)O)C(=O)N[C@@H](CO)C(=O)N[C@@H](C)C(=O)N[C@@H](CC(=O)N[C@@H]1O[C@H](CO)[C@@H](O)[C@H](O)[C@H]1NC(C)=O)C(=O)N[C@@H](C)C(=O)N[C@H](C(=O)N[C@@H](CO)C(=O)N[C@@H](CC(C)C)C(=O)N1CCC[C@H]1C(=O)N[C@H](C(=O)N[C@@H](CCC(N)=O)C(=O)N[C@@H](C)C(=O)N[C@@H](CO)C(=O)N[C@@H](CO)C(=O)N[C@@H](CO)C(=O)N[C@H](C(=O)N1CCC[C@H]1C(=O)N[C@@H](CC(C)C)C(=O)N1CCC[C@H]1C(=O)O)C(C)C)C(C)C)[C@@H](C)O [4(QA)] (H-NILFRDSAD(NH(β-GlcNAc))ATSLPVQASSSVPLP-OH) | – | – | remaining at 16 h, 50 μM (ADAM17): 0.4%
CC[C@H](C)[C@H](NC(=O)[C@@H](N)CC(N)=O)C(=O)N[C@@H](CC(C)C)C(=O)N[C@@H](Cc1ccccc1)C(=O)N[C@@H](CCCNC(=N)N)C(=O)N[C@@H](CC(=O)O)C(=O)N[C@@H](CO)C(=O)N[C@@H](C)C(=O)N[C@@H](CC(N)=O)C(=O)N[C@@H](C)C(=O)N[C@H](C(=O)N[C@@H](CO)C(=O)N[C@@H](CC(C)C)C(=O)N1CCC[C@H]1C(=O)N[C@H](C(=O)N[C@@H](CCC(N)=O)C(=O)N[C@@H](CC(=O)O)C(=O)N[C@@H](CO)C(=O)N[C@@H](CO)C(=O)N[C@@H](CO)C(=O)N[C@H](C(=O)N1CCC[C@H]1C(=O)N[C@@H](CC(C)C)C(=O)N1CCC[C@H]1C(=O)O)C(C)C)C(C)C)[C@@H](C)O[C@H]1O[C@H](CO)[C@H](O)[C@H](O)[C@H]1NC(C)=O [7(QD)] (H-NILFRDSANAT(αGalNAc)SLPVQDSSSVPLP-OH) | – | – | remaining at 16 h, 50 μM (ADAM17): 91%
B1 | decreases | – | –
B2 | – | decreases, 10.8% ± 5.4% vs 1.0% ± 1.0% | –
B3 | abolishes | – | –
B4 | – | no change | –
B5 | decreases | – | –
B6 | abolishes | – | –
B7 | – | decreases, 14.7% ± 6.3% vs 1.0% ± 1.0% | –
B8 | – | no change, 0.4% ± 0.7% vs 1.0% ± 1.0% | –
B9 | – | – | sIL-6R shedding, Figure S4G, mean (ADAM10; treatment DMSO): 109.87; sIL-6R shedding, Figure S4G, mean (ADAM10; treatment Iono): 197.873
